Results taken from paper PMC8133496 (PLoS Biology, 2021).

How the values were obtained:
Conditions in all cases: both partners purified
[1] = molecular target: SARS-CoV-2 spike receptor-binding domain (residues 333 to 530), carboxyl-terminal 8xHis tag (Severe acute respiratory syndrome …, UniProt P0DTC2); assay: crystal structure
[2] = molecular target: recombinant SARS-CoV-2 S1 RBD protein (Severe acute respiratory syndrome …, UniProt P0DTC2); assay: BLI
[3] = molecular target: recombinant SARS-CoV-2 S1 protein (SARS-CoV-2, wild type (reference), UniProt P0DTC2); assay: BLI

Binder	binding result [1]	Kd [2] [nM]	Kd [3] [nM]
PR961 single-chain variable fragment (scFv, V domains shown, also called PR961 scFv) VH: QVQLVQSGAEVKKPGASVKLSCKASGYSFTSYWVNWVRQAPGQGLEWIGMIHPSDSETRLNQKFKDRVTITVDKSTSTAYMELSSLRSEDTAVYYCARADGYEWYFDVWGRGTLVTVSS VL: DIVLTQSPASLAVSPGQRATITCRASESVDSYGNSFMHWYQQKPGQPPKLLIYRASNLESGIPARFSGSGSGTDFTLTINPVEANDVANYYCQQSNEDPWTFGQGTKVEIK	binds	–	–
PR1077 (antibody, V domains shown, source: HEK 293F or ExpiCHO, transfected, purified (Protein A)) VH: QVQLVESGGGVVQPGRSLRLSCAASGFTFSYYGMHWVRQAPGKGLEWVAVIWYDGSNRFYADSVKGRFTISRDNSKSTLYLQMNSLRAEDTAVYYCATDPPGLRFRFDYWGQGTLVTVSS VL: not shown	–	2.33	0.543
PR953 (antibody, V domains shown, source: HEK 293F or ExpiCHO, transfected, purified (Protein A)) VH: EVQLQQSGPELVKPGASVKISCKTSGYTFTEYTMHWVKQSHGKSLEWIGGINPNNGDNTYNQKLKGKATLTVHKSSSTAYMELRSLTSEDSAVYYCARDGYPYYYALDYWGQGTSVTVSS VL: DIVMTQSQKFMSTSVGDRVSVTCKASQNVGTNVAWYQQKPGQSPKPLIYSASSRYSGVPDRFTGSGSGTDFTLTISNVQSEDLAEYFCQQYNNYPWTFGGGTKLEIK	–	< 0.001	–
